Binding result and Kd data for six molecules are collected here from paper PMC11662656, “Intrinsically disordered RNA-binding motifs cooperate to catalyze RNA folding and drive phase separation”.

For data set [1], the target named is T1, MBP-Loc1p (Saccharomyces cerevisiae, UniProt P43586 1-204). The data set can be described thus: competition; vs labeled ASH1 E3; 10-500x; EMSA: 20 mM HEPES pH 7.8, 200 mM NaCl, 2 mM MgCl2, 2 mM DTT, 4% glycerol, 25 C, 5 nM RNA, 100 ug/ml tRNA (omitted in competition); NMR: 20 mM Na phosphate pH 7.4, 50 mM NaCl, 278 K. As to conditions: protein: recombinant; tags: MBP; hairpin. For orientation: Mobility shift assays separate free from complexed probe on a gel.

Data set [2] concerns the target Loc1p (Saccharomyces cerevisiae, UniProt P43586 1-204). The data set can be described thus: EMSA; nanomolar range; 100 ug/ml yeast tRNA; EMSA: 20 mM HEPES pH 7.8, 200 mM NaCl, 2 mM MgCl2, 2 mM DTT, 4% glycerol, 25 C, 5 nM RNA, 100 ug/ml tRNA (omitted in competition); NMR: 20 mM Na phosphate pH 7.4, 50 mM NaCl, 278 K. To be noted: protein: recombinant; hairpin.
Data set [3] addresses T2, MBP-Loc1p (Saccharomyces cerevisiae, UniProt P43586 1-204). The data set can be described thus: EMSA; 100 nM DNA; affinity similar to ssRNA; EMSA: 20 mM HEPES pH 7.8, 200 mM NaCl, 2 mM MgCl2, 2 mM DTT, 4% glycerol, 25 C, 5 nM RNA, 100 ug/ml tRNA (omitted in competition); NMR: 20 mM Na phosphate pH 7.
The target in another data set is T3, Loc1p array peptide A10 (Saccharomyces cerevisiae, UniProt P43586 28-47).
T3 chain: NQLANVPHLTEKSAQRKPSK
The data set can be described thus: peptide array; EMSA: 20 mM HEPES pH 7.8, 200 mM NaCl, 2 mM MgCl2, 2 mM DTT, 4% glycerol, 25 C, 5 nM RNA, 100 ug/ml tRNA (omitted in competition); NMR: 20 mM Na phosphate pH 7.4, 50 mM NaCl, 278 K. To be noted: tags: array-immobilized; label: radioactive.

The target in another data set is Loc1p array peptide B7 (Saccharomyces cerevisiae, UniProt P43586 79-98). The description is as above. To be noted: tags: array-immobilized; label: radioactive.
Another data set concerns the target T4, Loc1p array peptide B19 (Saccharomyces cerevisiae, UniProt P43586 115-134).
T4 chain: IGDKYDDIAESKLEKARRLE
Described as above. To be noted: tags: array-immobilized; label: radioactive.

In another data set the target is T5, Loc1p array peptide A7 (Saccharomyces cerevisiae, UniProt P43586 19-38).
T5 chain: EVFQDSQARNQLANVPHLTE
Described as above. To be noted: tags: array-immobilized; label: radioactive.

The next data set has as its target Loc1p array peptide B8 (Saccharomyces cerevisiae, UniProt P43586 82-101). The description is as above. To be noted: tags: array-immobilized; label: radioactive.
A further data set deals with Loc1p array peptide A15 (Saccharomyces cerevisiae, UniProt P43586 43-62). The data set is described as above. To be noted: tags: array-immobilized; label: radioactive.
For another data set, the target named is T6, Loc1p array peptide A11 (Saccharomyces cerevisiae, UniProt P43586 31-50).
T6 chain: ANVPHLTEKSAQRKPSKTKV
The data set is described as above. To be noted: tags: array-immobilized; label: radioactive.

Another data set concerns the target T7, Loc1p array peptide A9 (Saccharomyces cerevisiae, UniProt P43586 25-44).
T7 chain: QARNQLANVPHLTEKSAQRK
Described as above. To be noted: tags: array-immobilized; label: radioactive.

In another data set the target is Loc1p array peptide A14 (Saccharomyces cerevisiae, UniProt P43586 40-59). Described as above. As to conditions: tags: array-immobilized; label: radioactive.
The next data set concerns the target Loc1p array peptide B6 (Saccharomyces cerevisiae, UniProt P43586 76-95). The description is as above. As to conditions: tags: array-immobilized; label: radioactive.
A further data set deals with Loc1p array peptide C15 (Saccharomyces cerevisiae, UniProt P43586 163-182). Described as above. As to conditions: tags: array-immobilized; label: radioactive.
The next data set addresses Loc1p array peptide B5 (Saccharomyces cerevisiae, UniProt P43586 73-92). Described as above. As to conditions: tags: array-immobilized; label: radioactive.
A further data set deals with T8, Loc1p (3-15) (Saccharomyces cerevisiae, UniProt P43586 3-15).
T8 chain: PKKPSKRQNLRRE
The data set can be described thus: NMR (1H-15N HSQC titration); range over peptide signals; EMSA: 20 mM HEPES pH 7.8, 200 mM NaCl, 2 mM MgCl2, 2 mM DTT, 4% glycerol, 25 C, 5 nM RNA, 100 ug/ml tRNA (omitted in competition); NMR: 20 mM Na phosphate pH 7.4, 50 mM NaCl, 278 K. To be noted: protein: recombinant; tags: GST removed by thrombin (15N,13C sample); hairpin, 11 bp stem, GAAA loop.

Data set [4] has as its target T2, MBP-Loc1p. The data set can be described thus: competition; vs labeled TAR-57; 10-500x; EMSA: 20 mM HEPES pH 7.8, 200 mM NaCl, 2 mM MgCl2, 2 mM DTT, 4% glycerol, 25 C, 5 nM RNA, 100 ug/ml tRNA (omitted in competition); NMR: 20 mM Na phosphate pH 7.
Data set [5] addresses Loc1p (Saccharomyces cerevisiae, UniProt P43586 1-204). The data set can be described thus: EMSA; nanomolar range; 100 ug/ml yeast tRNA; EMSA: 20 mM HEPES pH 7.8, 200 mM NaCl, 2 mM MgCl2, 2 mM DTT, 4% glycerol, 25 C, 5 nM RNA, 100 ug/ml tRNA (omitted in competition); NMR: 20 mM Na phosphate pH 7.
In data set [6] the target is T2, MBP-Loc1p. The data set can be described thus: competition; vs labeled ASH1 E3; 10-500x; EMSA: 20 mM HEPES pH 7.8, 200 mM NaCl, 2 mM MgCl2, 2 mM DTT, 4% glycerol, 25 C, 5 nM RNA, 100 ug/ml tRNA (omitted in competition); NMR: 20 mM Na phosphate pH 7.
The target in data set [7] is T1, MBP-Loc1p. The data set can be described thus: competition; vs labeled TAR-57; 10-500x; EMSA: 20 mM HEPES pH 7.8, 200 mM NaCl, 2 mM MgCl2, 2 mM DTT, 4% glycerol, 25 C, 5 nM RNA, 100 ug/ml tRNA (omitted in competition); NMR: 20 mM Na phosphate pH 7.4, 50 mM NaCl, 278 K. To be noted: protein: recombinant; tags: MBP.

Usually Kd stands for the free concentration of one partner at which half of the binding sites on the other are occupied at equilibrium, for simple one-to-one binding.

B1: HIV TAR-57 (structured_RNA)
RNA: GGUCUCUCUGGUUAGACCAGAUCUGAGCCUGGGAGCUCUCUGGCUAACUAGGGAACC
As for B1, the binding result in the data set with MBP-Loc1p [1] and in the data set with Loc1p [2] was “binds” throughout.

B2: Cy3-A(21) ssDNA (ssDNA)
DNA: AAAAAAAAAAAAAAAAAAAAA
On to B2, for which the binding result in the data set with MBP-Loc1p [3] is reported as “binds”.

B3: ASH1 E3 (short) (structured_RNA)
RNA: AUGGAUAACUGAAUCUCUUUCAACUAAUAAGAGACAUUAUCACGAAACAAU
Consider B3, for which the binding result is “binds” with Loc1p array peptide A10; “binds” with Loc1p array peptide B7; “no binding” in the data set with Loc1p array peptide B19; “no binding” with Loc1p array peptide A7; “binds” with Loc1p array peptide B8; “binds” with Loc1p array peptide A15. In addition, the binding result in the data set with Loc1p array peptide A11, with Loc1p array peptide A9, with Loc1p array peptide A14, with Loc1p array peptide B6, with Loc1p array peptide C15 and with Loc1p array peptide B5 was “binds” in each case.

B4: dsRNA tetraloop (structured_RNA)
RNA: UCUCUGGUUAGGAAACUAACUAGGGA
For the molecule B4, the Kd with Loc1p (3-15) is roughly 73.7 µM.

B5: EAR1 LE (ssRNA)
RNA: CGAAGAUGAAAAUGAUCACGAGAGAGAUCCCGAACAAUUUUCAGAAUUUG
B5: the binding result with MBP-Loc1p [4] and with Loc1p [5] was “binds” in each case.

B6: poly-A60 (ssRNA)
RNA: AAAAAAAAAAAAAAAAAAAAAAAAAAAAAAAAAAAAAAAAAAAAAAAAAAAAAAAAAAAA
Turning to B6, the binding result with MBP-Loc1p [6], in the data set with Loc1p [5] and with MBP-Loc1p [7] was “binds” throughout.
